The target in experiment [1] is T1, SAV-CD99 complex (biotinylated CD99 ECD tetramerized on streptavidin) (human, UniProt P22629 37-163 (Streptomyces avidinii entry), limits assumed, DyLight650 label; biotin on the AviTag).
T1 construct: also called tetramerized CD99; tetramerized SUMO-CD99; not shown: N-terminal 6xHis tag, AviTag, TEV site and fusion partner
The experiment can be described thus: yeast display binding signal (FIG. 5E).

The target in experiment [2] is T2, CD99 endogenously expressed on cells (Jurkat, KOPT-K1) (human, UniProt P14209 23-185, O-linked glycosylation (natural, on cells)).
T2 construct: also called endogenously expressed CD99; CD99 on cells
T2 sequence: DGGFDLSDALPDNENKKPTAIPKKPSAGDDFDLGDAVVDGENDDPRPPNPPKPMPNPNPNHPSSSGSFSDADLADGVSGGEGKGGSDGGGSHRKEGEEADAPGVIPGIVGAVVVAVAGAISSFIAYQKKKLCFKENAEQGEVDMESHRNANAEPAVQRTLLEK
Put plainly: flow cytometry titration on Jurkat cells (FIG. 1G). On the technique in general: In flow cytometry, cells or beads pass a laser one at a time.
Protocol: The cells were washed three times, and resuspended in 100 μL of PBS/2% FBS and analyzed on a HyperCyt screener (Satorius). […] Gating for flow cytometry consisted of FSC vs SSC cell gating, followed by single cell gating in FSC-H or FSC-A vs FSC-W to remove aggregates. For all samples cells were gated for Propidium Iodide negative. T-ALL patient samples cells were then gated for human CD45 positive followed by CD34 negative, and finally CD7 positive. For healthy donor PBMC samples cells were gated for human CD45 positive followed by CD34 positive and CD34 negative. Data collection performed on ZE5 Cell Analyzer (BioRad) or Guava easyCyte (Luminex) flow cytometers. Signals reported are median fluorescence intensities.

Experiment [3] concerns the target T3, recombinant CD99 extracellular domain (fusion partner not given) (human, UniProt P14209 23-122).
T3 construct: also called CD99 ECD; human CD99; not shown: N-terminal 6xHis tag, AviTag, TEV site and a fusion partner (SUMO or GFP)
T3 sequence: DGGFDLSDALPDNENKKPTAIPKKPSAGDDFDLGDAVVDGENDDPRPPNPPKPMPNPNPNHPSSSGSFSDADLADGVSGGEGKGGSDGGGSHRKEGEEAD
Put plainly: Western blot of recombinant CD99.

Experiment [4] has as its target T4, Glycoprotein Xg extracellular domain (human, UniProt P55808 22-142).
T4 construct: extracellular domain
T4 sequence (looked up): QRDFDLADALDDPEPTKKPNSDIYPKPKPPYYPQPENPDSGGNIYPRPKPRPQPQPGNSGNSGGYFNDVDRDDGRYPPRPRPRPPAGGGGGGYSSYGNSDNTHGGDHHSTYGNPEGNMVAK
Put plainly: binding of scFv-Fc to immobilized homolog ECDs (FIG. 1B).

Experiment [5] has as its target T5, CD99L2 extracellular domain (human, UniProt Q8TCZ2 26-185).
T5 construct: extracellular domain
T5 sequence (looked up): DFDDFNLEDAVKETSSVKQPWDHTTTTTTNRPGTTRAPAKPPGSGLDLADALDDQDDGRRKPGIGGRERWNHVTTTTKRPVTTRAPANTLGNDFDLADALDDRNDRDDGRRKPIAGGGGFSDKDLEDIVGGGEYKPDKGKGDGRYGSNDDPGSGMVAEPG
Described as above.

Experiment [6] addresses T6, mouse CD99 (mouse, UniProt Q8VCN6 29-137, limits assumed).
T6 sequence (looked up): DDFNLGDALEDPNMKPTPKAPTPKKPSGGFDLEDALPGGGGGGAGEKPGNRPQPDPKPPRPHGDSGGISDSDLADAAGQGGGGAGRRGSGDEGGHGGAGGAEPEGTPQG
Put plainly: binding of scFv-Fc to CD99 from different species (FIG. 1C).

Experiment [7] has as its target T2, CD99 endogenously expressed on cells …. Put plainly: flow cytometry on Jurkat cells (FIG. 1E).
Protocol: (§1) The cells were washed three times, and resuspended in 100 μL of PBS/2% FBS and analyzed on a HyperCyt screener (Satorius). […] Gating for flow cytometry consisted of FSC vs SSC cell gating, followed by single cell gating in FSC-H or FSC-A vs FSC-W to remove aggregates. For all samples cells were gated for Propidium Iodide negative. […] Data collection performed on ZE5 Cell Analyzer (BioRad) or Guava easyCyte (Luminex) flow cytometers. Signals reported are median fluorescence intensities.
To assess if the antibodies bind to CD99 with posttranslational modifications, their binding to CD99 on cells was tested.
Experiment [8] has the same target. The experiment can be described thus: cell-based or functional assay.
Experiment [9] has the same target. The experiment can be described thus: flow cytometry titration on KOPT-K1 cells; apparent KD (FIG. 3B).
Protocol: as §1
To assess if enhanced cytotoxic effect is the consequence of enhanced binding to cells, binding of these antibodies was measured to KOPT-K1 cells (FIG. 3B).

T1 sequence (P22629 37-163 limits assumed, one chain of several): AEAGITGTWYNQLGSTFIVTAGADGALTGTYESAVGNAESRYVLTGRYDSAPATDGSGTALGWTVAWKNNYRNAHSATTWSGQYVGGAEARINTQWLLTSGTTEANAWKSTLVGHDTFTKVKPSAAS

B1: 10A1 with light chain D50 mutated to serine (yeast display format) (scFv, V domains shown)
VH: QVQLQQSGPVLVKPSQTLSLTCAISGDSISSDTTAWSWIRRSPSRGLEWLGWTYYRSKWFNYYAVSVKGRVTINPDTSKNQFSLQLSSVTPEDTAVYYCARGNGNGGMDVWGQGTTVTVSS
VL: SYVLTQPASASVSPGQTARITCSGDALPKQYAYWYQQKPGQAPVLVIFKSSERPSGVPERFSGSSSGTTVTLTISGAQAEDEADYYCQSVDNSGFYQVFGGGTQLTVL
notes: also called D50L to serine
In the case of B1, in experiment [1], the binding result is “no binding (tested: 100 nM SAV-CD99 complex)”.

B2: 10A1 with light chain D91 mutated to serine (yeast display format) (scFv, V domains shown)
VH: QVQLQQSGPVLVKPSQTLSLTCAISGDSISSDTTAWSWIRRSPSRGLEWLGWTYYRSKWFNYYAVSVKGRVTINPDTSKNQFSLQLSSVTPEDTAVYYCARGNGNGGMDVWGQGTTVTVSS
VL: SYVLTQPASASVSPGQTARITCSGDALPKQYAYWYQQKPGQAPVLVIFKDSERPSGVPERFSGSSSGTTVTLTISGAQAEDEADYYCQSVSNSGFYQVFGGGTQLTVL
notes: also called D91L to serine
As to B2, the binding result in [1] is given as “no binding (tested: 100 nM SAV-CD99 complex)”.

B3: 10A1 in the scFv-Fc format (Fc fusion)
chain: QVQLQQSGPVLVKPSQTLSLTCAISGDSISSDTTAWSWIRRSPSRGLEWLGWTYYRSKWFNYYAVSVKGRVTINPDTSKNQFSLQLSSVTPEDTAVYYCARGNGNGGMDVWGQGTTVTVSSGILSGSSSSGSSSSGSSSSGYVLTQPASASVSPGQTARITCSGDALPKQYAYWYQQKPGQAPVLVIFKDSERPSGVPERFSGSSSGTTVTLTISGAQAEDEADYYCQSVDNSGFYQVFGGGTQLTVLSGSSSSLEGCKPCICTVPEVSSVFIFPPKPKDVLTITLTPKVTCVVVDISKDDPEVQFSWFVDDVEVHTAQTQPREEQFNSTFRSVSELPIMHQDWLNGKEFKCRVNSAAFPAPIEKTISKTKGRPKAPQVYTIPPPKEQMAKDKVSLTCMITDFFPEDITVEWQWNGQPAENYKNTQPIMDTDGSYFVYSKLNVQKSNWEAGNTFTCSVLHEGLHNHHTEKSLSHSPGKGGGGLNDIFEAQKIEWHESRHHHHHH
notes: Bivalent; also called 10A1 scFv-Fc
In the case of B3, in experiment [2], the “fold improvement of apparent KD over Clone 10” value is 14 fold.

B4: clone 10 in the scFv-Fc format (Fc fusion)
chain: QVQLQQSGPVLVKPSQTLSLTCAISGDSVSSDTTAWSWIRQSPSRGLEWLGWTYYRSKWFNYYAVSVKSRVTINPDTSKNQFSLQLSSVTPEDTAVYYCARGNGNGGMDVWGQGTTVTVSSGILGSGGGGSGGGGSGGGGSSYVLTQPPSVSVSPGQTARITCSGDALPKQYAYWYQQKPGQAPVLVIFKDSERPSGIPERFSGSSSGTTVTLTISGVQAEDEADYYCQSADNSGFYQVFGGGTQLTVLSGSSSSLEGCKPCICTVPEVSSVFIFPPKPKDVLTITLTPKVTCVVVDISKDDPEVQFSWFVDDVEVHTAQTQPREEQFNSTFRSVSELPIMHQDWLNGKEFKCRVNSAAFPAPIEKTISKTKGRPKAPQVYTIPPPKEQMAKDKVSLTCMITDFFPEDITVEWQWNGQPAENYKNTQPIMDTDGSYFVYSKLNVQKSNWEAGNTFTCSVLHEGLHNHHTEKSLSHSPGKGGGGLNDIFEAQKIEWHESRHHHHHH
notes: also called Clone 10 scFv-Fc antibody
B4: the binding result is given as “binds” in experiment [3], “no binding (tested: 600 nM Fv)” in [4] and “no binding (tested: 600 nM Fv)” in experiment [5].

B5: clone 30 in the scFv-Fc format (Fc fusion)
chain: EVQLLETGGGLVQPGGSLRLSCAASGFTFSSSAMHWVRQAPGKGLEWVAAISYDGSDTYYADSVKGRFTISRDNAKNTLYLQMNSLRDEDTAVYYCARDQVLGSGSLDYWGQGTLVTVSSGILGSGGGGSGGGGSGGGGSNFMLTQPHSVSESPGKTVTISCTRSSGSIGSYYVQWYQQRPGSPPTTVIYEDDKRPSGVPDRFSGSIDSSSNSASLTISGLKTEDEADYYCQSYDSSHVVFGGGTKLTVLSGSSSSLEGCKPCICTVPEVSSVFIFPPKPKDVLTITLTPKVTCVVVDISKDDPEVQFSWFVDDVEVHTAQTQPREEQFNSTFRSVSELPIMHQDWLNGKEFKCRVNSAAFPAPIEKTISKTKGRPKAPQVYTIPPPKEQMAKDKVSLTCMITDFFPEDITVEWQWNGQPAENYKNTQPIMDTDGSYFVYSKLNVQKSNWEAGNTFTCSVLHEGLHNHHTEKSLSHSPGKGGGGLNDIFEAQKIEWHESRHHHHHH
notes: The format mimics the bivalent IgG architecture
Consider B5, for which the binding result in [6] is “no binding (tested: 1 µM Fv)”; in [3], “binds”; in experiment [4], “no binding (tested: 600 nM Fv)”; in experiment [5] it was “no binding (tested: 600 nM Fv)”; in experiment [7], “binds”.

B6: 10A1 IgG-E345R (antibody)
heavy: QVQLQQSGPVLVKPSQTLSLTCAISGDSISSDTTAWSWIRRSPSRGLEWLGWTYYRSKWFNYYAVSVKGRVTINPDTSKNQFSLQLSSVTPEDTAVYYCARGNGNGGMDVWGQGTTVTVSSASTKGPSVFPLAPSSKSTSGGTAALGCLVKDYFPEPVTVSWNSGALTSGVHTFPAVLQSSGLYSLSSVVTVPSSSLGTQTYICNVNHKPSNTKVDKKVEPKSCDKTHTCPPCPAPEAAGGPSVFLFPPKPKDTLMISRTPEVTCVVVDVSHEDPEVKFNWYVDGVEVHNAKTKPREEQYNSTYRVVSVLTVLHQDWLNGKEYKCKVSNKALGAPIEKTISKAKGQPRRPQVYTLPPSREEMTKNQVSLTCLVKGFYPSDIAVEWESNGQPENNYKTTPPVLDSDGSFFLYSKLTVDKSRWQQGNVFSCSVMHEALHNHYTQKSLSLSPGK
light: SYVLTQPASASVSPGQTARITCSGDALPKQYAYWYQQKPGQAPVLVIFKDSERPSGVPERFSGSSSGTTVTLTISGAQAEDEADYYCQSVDNSGFYQVFGGGTQLTVLRTVAAPSVFIFPPSDEQLKSGTASVVCLLNNFYPREAKVQWKVDNALQSGNSQESVTEQDSKDSTYSLSSTLTLSKADYEKHKVYACEVTHQGLSSPVTKSFNRGEC
notes: Valency of twelve as a hexamer; also called 10A1 E345R; 'inducible hexamer'
B6: the “IC50 of cytotoxicity (Annexin V, KOPT-K1 cells, 18 hours)” value in [8] was determined as 299 nM Fv. Further, in experiment [9], the “fold higher KD than IgG-RGY, IgG-HCscFv and IgG” value is roughly 3 fold.

B7: 10A1 IgG-RGY (antibody)
heavy: QVQLQQSGPVLVKPSQTLSLTCAISGDSISSDTTAWSWIRRSPSRGLEWLGWTYYRSKWFNYYAVSVKGRVTINPDTSKNQFSLQLSSVTPEDTAVYYCARGNGNGGMDVWGQGTTVTVSSASTKGPSVFPLAPSSKSTSGGTAALGCLVKDYFPEPVTVSWNSGALTSGVHTFPAVLQSSGLYSLSSVVTVPSSSLGTQTYICNVNHKPSNTKVDKKVEPKSCDKTHTCPPCPAPEAAGGPSVFLFPPKPKDTLMISRTPEVTCVVVDVSHEDPEVKFNWYVDGVEVHNAKTKPREEQYNSTYRVVSVLTVLHQDWLNGKEYKCKVSNKALGAPIEKTISKAKGQPRRPQVYTLPPSREEMTKNQVSLTCLVKGFYPSDIAVEWESNGQPENNYKTTPPVLDSDGSFFLYSKLTVDKSRWQQGNVFSCSVMHGALHNHYTQKYLSLSPGK
light: SYVLTQPASASVSPGQTARITCSGDALPKQYAYWYQQKPGQAPVLVIFKDSERPSGVPERFSGSSSGTTVTLTISGAQAEDEADYYCQSVDNSGFYQVFGGGTQLTVLRTVAAPSVFIFPPSDEQLKSGTASVVCLLNNFYPREAKVQWKVDNALQSGNSQESVTEQDSKDSTYSLSSTLTLSKADYEKHKVYACEVTHQGLSSPVTKSFNRGEC
For the molecule B7, in [8], the “IC50 of cytotoxicity (Annexin V, KOPT-K1 cells, 18 hours)” value was determined as 442 nM Fv.

B8: clone 22 in the scFv-Fc format (Fc fusion)
chain: QVQLQQSGPGLVKPSQTLSLTCAISGDSVSSNSAAWNWIRQSPSRGLEWLGRTYYRSKWYNDYAVSVKSRITINPDTSKNQFSLQLNSVTPEDTAVYYCARGSYGSGLVWGQGTTVTVSSGSASAPTGILGSGGGGSGGGGSGGGGSNFMLTQPHSVSESPGKTVTISCTGSSGSIASNYVQWYQQRPGSAPTTVIYEDDQRPSGVPDRFSGSLDTSSNSASLTISGLRPEDEADYYCQSYDNKDNVVFGGGTKVTVLSGSSSSLEGCKPCICTVPEVSSVFIFPPKPKDVLTITLTPKVTCVVVDISKDDPEVQFSWFVDDVEVHTAQTQPREEQFNSTFRSVSELPIMHQDWLNGKEFKCRVNSAAFPAPIEKTISKTKGRPKAPQVYTIPPPKEQMAKDKVSLTCMITDFFPEDITVEWQWNGQPAENYKNTQPIMDTDGSYFVYSKLNVQKSNWEAGNTFTCSVLHEGLHNHHTEKSLSHSPGKGGGGLNDIFEAQKIEWHESRHHHHHH
notes: as for B5
B8: the binding result in experiment [6] is listed as “no binding (tested: 1 µM Fv)”; in [3] it was “binds”; in experiment [4], “no binding (tested: 600 nM Fv)”; in experiment [5], “no binding (tested: 600 nM Fv)”; in experiment [7], “binds”.

(Values after patent US20240190985A1 (NEW YORK UNIVERSITY, published 2024).)
